Laboratory results published in the supplement of paper PMC9170038.

Legend:
MS2 coat protein [1] = experiment: apparent KD of MS2 coat protein, switch ON state; designed switch direction (-1 OFF switch, 1 ON switch): 1; higher = weaker reporter binding; conditions: FMN input: 0 or 200 uM; Eterna round: R93 (includes R88 designs)
In short: (§1)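 Apparent KD stands for the median, per design, of fits to normalised cluster binding curves. The curves came from titrating on-chip-transcribed RNA switches on Illumina sequencing clusters with SNAP-549-labelled MS2 coat protein, twofold from 0.7 or 1.5 nM to 3 µM. Buffer was 100 mM Tris-HCl pH 7.5, 80 mM KCl, 4 mM MgCl2, without or with constant ligand.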

MS2 coat protein [2] = experiment: apparent KD of MS2 coat protein, switch OFF state (with FMN for OFF switches, without FMN for ON switches); designed switch direction (-1 OFF switch, 1 ON switch): 1; higher = weaker reporter binding; conditions: FMN input: 0 or 200 uM; Eterna round: R93 (includes R88 designs)
In short: as §1

Row | Sequence | apparent KD of MS2 coat protein (MS2 coat protein [1]) [nM] | apparent KD of MS2 coat protein (MS2 coat protein [2]) [nM]
1 | CGAAGACAUGAGGAUCACCCAUGUGGGAUUAUGGGAGGAUAUACAAAGACGAGAGUCAGAGUAGAAGGCCUAGGAC [salish99-ss1-127(!)] | 26 | 33.4
2 | CGAAGACAUGAGGAUCACCCAUGUGGGAUUAUGGGAGGAUAUACAAAGACGAGAGUCAGAGUAGAAGGCCUAGGAU [salish99-ss1-125(!)] | 22.4 | 47.8
3 | CGAGAGGAGAGAGAGGAUAUCCAAAGGAAAACAUGAGGAUCACCCAUGUAGAAGGUAGGAGAUUGGGAGAAGGCUCAAGAAGAAG [salish99-ss2-159] | 18.2 | 26
4 | CGCAAACAUGAGGAUCACCCAUGUCAUUGUGAUCAAGGAUAUGGGUUCCGAAGUGGAACACCAGAAGGUGAGUAGU [Sozaer] | 224 | 497
5 | CGCCAAUUGGCACAGGAUAUGAGCAUGCUCACAUGAGGAUCACCCAUGUGAUUAACAACGCAAUAUCAGAAGGGUGCCCUCAUCA [Leonon] | 50.3 | 33.1
6 | CGCGAACAUGAGGAUCACCCAUGUAGCGGGAAACAAGGAUAUGGGAGGCGAAAUCGCGGAUCAGAAGGUGUAAGCG [Laaratat] | 14.7 | 12.4
7 | CGGAAAGAGAGAGAGGAUAUCCAAAGGAAAACAUGAGGAUCACCCAUGUAGAAGGUAGGAAAUUGGGAGAAGGCUCAAGAGAGAG [salish99-ss2-132] | 25.3 | 26.7
8 | CGGAAGGAGAGAGAGGAUAUCCAAAGGAAAACAUGAGGAUCACCCAUGUAGAAGGUAGGAAAUUGGGAGAAGGCUCAAGAGAGUG [salish99-ss2-121] | 30.2 | 44.6
9 | CGGAAGGAGAGGGAGGAUAUCCAAAGGAAAACAUGAGGAUCACCCAUGUAGAAGGUAGGAAAUUGGGAGAAGGCUCAAGAGAGAG [salish99-ss2-131] | 32.3 | 24.4
10 | CGGAGACAUGAGGAUCACCCAUGUGAGAAGAGGCGAGGAUAUCGAAAGAAAGAAGAGAAACGAGAAGGCGCGAGUC [salish99-SS1-078] | 20.4 | 25
11 | CGGCAAGAGAGAGAGGAUAUCCAAAGGAAAACAUGAGGAUCACCCAUGUAGAAGGUAGGAAAUUGGGAGAAGGCUCAAGAGAGAG [salish99-ss2-135] | 23.2 | 18.4
12 | CGGUAAGAGAGAGAGGAUAUCCAAAGGAAAACAUGAGGAUCACCCAUGUAGAAGGUAGGAAAUUGGGAGAAGGCUCAAGAGAGAG [salish99-ss2-133] | 58.4 | 61.7
13 | CUGGACCUAGGAUAGGAUAUGUGAAUAAUUACAUGAGGAUCACCCAUGUCCAUUUAUAUGGGAACAUAGAAGGGUUUUGGUUAAG [Mat - Same state - Malcolm Mod - D147] | 103 | 164
14 | GAAAAACAUGAGGAUCACCCAUGUACAAAUAUGGAAGGAUAUACGAUGACGAAAGUCAAAGUAGAAGGUCUAAAAG [Garnet 98] | 20.9 | 25.4
15 | GAAAAACAUGAGGAUCACCCAUGUAGAAAUAUGGGAGGAUAUACAAAGACGAAAGUCAAAGUAGAAGGCCUGAAGA [Mat - Same State 1 - JL mod - D91] | 27.1 | 73.1
16 | GAAAAACAUGAGGAUCACCCAUGUAGAAAUAUGGGAGGAUAUACAAAGACGAAAGUCAAAGUAGAAGGCCUGAGAA [Mat - Same State 1 - Eli mod - 83] | 21 | 103

Row | Sequence | apparent KD of MS2 coat protein (MS2 coat protein [1]) [nM] | apparent KD of MS2 coat protein (MS2 coat protein [2]) [nM]
17 | GAAAAACAUGAGGAUCACCCAUGUAGAAAUAUGGGAGGAUAUACAAGGACGAAAGUCAAGGUAGAAGGCCUAAAAG [Mat - Same State 1 - Eli mod - 26] | 33.8 | 98.6
18 | GAAAAACAUGAGGAUCACCCAUGUGGAAAUAUGGGAGGAUAUACGAAGACGAAAGUCAAAGUAGAAGGCCUAAAAG [Same State 1.4c (Mat - Mod of Eli - )] | 22 | 83.8
19 | GAAAAACAUGAGGAUCACCCAUGUGUAAAUAUGGAAGGAUAUACGAAGACGUAAGUCAAAGUAGAAGGUCUAAAAG [Garnet 99] | 19.3 | 24.9
20 | GAAGACAUAGUUCAGGAUAUAGGAAUAGUCACAUGAGGAUCACCCAUGUGCAUUUAUAUGCGCACUUAGAAGGGAGGUAGUUAAU [Mat - Same state - Malcolm Mod - D120] | 28.4 | 26.8
21 | GACAAACAUGAGGAUCACCCAUGUAGAAAUAUGGGAGGAUAUACACAGACGAAAGUCAAAGUAGAAGGCCUAAAAG [77%, Mat - Mod of Eli - With 2 more C's] | 28.5 | 137
22 | GACCGGGACGCGUAGGAUAUGUAGUGCGCUACAUGAGGAUCACCCAUGUGCGAGACUUCAAAAGAGCAGAAGGGUGUGUGCCCGG [Xegeedri] | 40.2 | 65.8
23 | GAGAAACAUGAGGAUCACCCAUGUAGAAAUAUGGGAGGAUAUACAAAGACGAAAGUCAAAGUAGAAGGCCUAAAAG [77%, Mat - Mod of Eli - With 1 more G's] | 26 | 55.9
24 | GAGAAGGAGAGAGAGGAUAUCCAAAGGAAAACAUGAGGAUCACCCAUGUAAAAGGUAGGAAAUUGGGAGAAGGCUCAAGAGAGAG [salish99-ss2-108(!)] | 33 | 34.3
25 | GAGAUACAUGAGGAUCACCCAUGUUGAAACAUGGGAGGAUAUACAAGGUCGAAAGAUAAGGUAGAAGGCCUAAAAG [LROPPY Same State 1 - v04_deltaG=3.] | 37.6 | 20.3
26 | GAGCCGCGGGCACAGGAUAUGCUCGGGCAAACAUGAGGAUCACCCAUGUGCGGCCUAAAUACGACGCAGAAGGGUGCUUGUGUGU [Lausisan] | 36.5 | 102
27 | GGAAGACAUGAGGAUCACCCAUGUGGGAAUAUGGGAGGAUAUACAAAGACGAGAGUCAGAGUAGAAGGCCUAGGAU [salish99-ss1-100] | 44 | 138
28 | GGCAGGAAGAGAGAGGAUAUCCAAAGGAAAACAUGAGGAUCACCCAUGUAAAAGGUAGGAAAUUGGGAGAAGGCUCAAGAGAGAG [salish99-ss2-099] | 30.9 | 35.4
29 | GGGAGACAUGAGGAUCACCCAUGUGAGAAGAGGCGAGGAUAUCGAAAAAAAAAAAAAAAACGAGAAGGCGCGAGAC [salish99-SS1-006] | 33.6 | 94.5
30 | GGGAGACAUGAGGAUCACCCAUGUGAGAAGAGGCGAGGAUAUCGAAAGAAAGAAGAGAAACGAGAAGGCGCGAGCA [salish99-SS1-052] | 39 | 60.4
31 | GGGAGGAAGAGAGAGGAUAUCCAAAGGAAAACAUGAGGAUCACCCAUGUAAAAGGUAGGAAAUUGGGAGAAGGCUCAAGAGAUGG [salish99-ss2-052] | 59 | 39.2
32 | GGGAGUAACAGAGAGGAUAUCCAAAGGAAAACAUGAGGAUCACCCAUGUAAAAGGAAGGAAAUUGGGAGAAGGCUCAAAAUAGAA [salish99-ss2-021] | 13.9 | 27
